Laboratory results reported in US20110097341A1 (Pfizer, published 2011).
Read-outs that look alike come from different tables or passages of the source.

B1: 3C (Fab, V domains shown)
VH: QVQLQESGPGLVKPSETLSLTCTVSGFSLIGYDLNWIRQPPGKGLEWIGIIWGDGTTDYNSAVKSRVTISKDTSKNQFSLKLSSVTAADTAVYYCARGGYWYATSYYFDYWGQGTLVTVS
VL: DIQMTQSPSSLSASVGDRVTITCRASQSISNNLNWYQQKPGKAPKLLIYYTSRFHSGVPSRFSGSGSGTDFTFTISSLQPEDIATYYCQQERTLPYTFGQGTKLEIKR
B2: 8L2-6D5 (Fab, V domains shown)
VH: QVQLQESGPGLVKPSETLSLTCTVSGFSLIGYDINWIRQPPGKGLEWIGMIWGDGTTDYNSALKSRVTISKDTSKNQFSLKLSSVTAADTAVYYCARGGYYYGTSYYFDYWGQGTLVTVS
VL: DIQMTQSPSSLSASVGDRVTITCRASQDISNHLNWYQQKPGKAPKLLIYYISRFHSGVPSRFSGSGSGTDFTFTISSLQPEDIATYYCQQSKTLPYTFGQGTKLEIKR
B3: H19-L129 (Fab, V domains shown)
VH: QVQLQESGPGLVKPSETLSLTCTVSGFSLIGYDLNWIRQPPGKGLEWIGIIWGDGTTDYNSAVKSRVTISKDTSKNQFSLKLSSVTAADTAVYYCARGGYYYGTSYYFDYWGQGTLVTVS
VL: DIQMTQSPSSLSASVGDRVTITCRASQSISNNLNWYQQKPGKAPKLLIYYTSRFHSGVPSRFSGSGSGTDFTFTISSLQPEDIATYYCQQSKTLPYTFGQGTKLEIKR
B4: Fab E3 (Fab, V domains shown)
VH: QVQLQESGPGLVKPSETLSLTCTVSGFSLIGYDLNWIRQPPGKGLEWIGIIWGDGTTDYNSAVKSRVTISKDTSKNQFSLKLSSVTAADTAVYYCARGGYWYATSYYFDYWGQGTLVTVS
VL: DIQMTQSPSSLSASVGDRVTITCRASQSISNNLNWYQQKPGKAPKLLIYYTSRFHSGVPSRFSGSGSGTDFTFTISSLQPEDIATYYCQQEHTLPYTFGQGTKLEIKR

Experiments:
Test in all cases: cell-based or functional assay
human NGF = human NGF (human, UniProt P01138 122-241)
rat NGF [1] = target: T1, rat NGF (rat, UniProt P25427 122-241)
rat NGF [2] = target: T1, rat NGF; remark: listed apart in the source
rat NGF [3] = target: T1, rat NGF; remark: listed apart in the source

T1 sequence (P25427 122-241 limits assumed): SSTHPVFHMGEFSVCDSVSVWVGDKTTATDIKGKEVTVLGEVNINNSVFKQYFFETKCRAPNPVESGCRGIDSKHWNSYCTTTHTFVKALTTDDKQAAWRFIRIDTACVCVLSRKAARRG
human NGF, sequence (P01138 122-241 limits assumed): as the sequence (P25427 122-241 limits assumed) above, with T3S, V6I, M9R, T37M, A60D, E65D, T92M, D94G, A117V, G120A counted along it

Row | Molecule | IC50 (in the presence of 1.5 pM NGF), NGF-dependent survival of mouse E13.5 trigeminal neurons (human NGF) [pM] | IC50 (in the presence of 15 pM NGF), NGF-dependent survival of mouse E13.5 trigeminal neurons (human NGF) [pM] | concentration that totally blocked NGF-elicited survival of trigeminal neurons (human NGF) [nM] | IC50 (1.5 pM NGF), NGF-dependent survival of mouse E13.5 trigeminal neurons (rat NGF [1]) [pM] | IC50 (15 pM NGF), NGF-dependent survival of mouse E13.5 trigeminal neurons (rat NGF [1]) [pM] | IC50 (1.5 pM NGF), NGF-dependent survival of mouse E13.5 trigeminal neurons (rat NGF [2]) [pM] | IC50 (15 pM NGF), NGF-dependent survival of mouse E13.5 trigeminal neurons (rat NGF [2]) [pM] | IC50 in the presence of 15 pM rat NGF, trigeminal neuron survival (rat NGF [3]) [pM]
1 | mouse antibody 911 (Fab) | 63.5 | 322 | 20 | 34.6 | 161 |  |  | 
2 | B1 | 5.6 | 80.9 |  |  |  | 6 | 31.6 | 
3 | B2 | 462 | 1580 |  |  |  | 169 | 730 | 
4 | B3 | 9.6 | 60.1 |  |  |  | 6 | 31 | 
5 | B4 | < 1.2 | < 21 |  |  |  | < 1.3 | < 8.3 | ~31.6
